# Measured values: publication PMC11848091 (Heliyon, 2025)
# T1: Mouse TNFR1 (mouse, UniProt P25118)
# T1 sequence: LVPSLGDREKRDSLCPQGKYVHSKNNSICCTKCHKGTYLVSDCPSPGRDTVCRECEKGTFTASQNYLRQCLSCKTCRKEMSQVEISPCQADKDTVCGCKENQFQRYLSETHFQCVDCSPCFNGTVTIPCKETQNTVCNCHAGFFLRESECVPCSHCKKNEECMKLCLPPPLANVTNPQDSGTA
# B1: Mouse TNF (ligand)
# chain: LRSSSQNSSDKPVAHVVANHQVEEQLEWLSQRANALLANGMDLKDNQLVVPADGLYLVYSQVLFKGQGCPDYVLLTHTVSRFAISYQEKVNLLSAVKSPCPKDTPEGAELKPWYEPIYLGGVFQLEKGDQLSAEVNLPKYLDFAESGQVYFGVIAL
# What was measured:
# Test in all cases: SPR
# Human CD163 = Human CD163 (human, UniProt Q86VB7)
# Sequence of Human CD163 (Q86VB7 42-1050): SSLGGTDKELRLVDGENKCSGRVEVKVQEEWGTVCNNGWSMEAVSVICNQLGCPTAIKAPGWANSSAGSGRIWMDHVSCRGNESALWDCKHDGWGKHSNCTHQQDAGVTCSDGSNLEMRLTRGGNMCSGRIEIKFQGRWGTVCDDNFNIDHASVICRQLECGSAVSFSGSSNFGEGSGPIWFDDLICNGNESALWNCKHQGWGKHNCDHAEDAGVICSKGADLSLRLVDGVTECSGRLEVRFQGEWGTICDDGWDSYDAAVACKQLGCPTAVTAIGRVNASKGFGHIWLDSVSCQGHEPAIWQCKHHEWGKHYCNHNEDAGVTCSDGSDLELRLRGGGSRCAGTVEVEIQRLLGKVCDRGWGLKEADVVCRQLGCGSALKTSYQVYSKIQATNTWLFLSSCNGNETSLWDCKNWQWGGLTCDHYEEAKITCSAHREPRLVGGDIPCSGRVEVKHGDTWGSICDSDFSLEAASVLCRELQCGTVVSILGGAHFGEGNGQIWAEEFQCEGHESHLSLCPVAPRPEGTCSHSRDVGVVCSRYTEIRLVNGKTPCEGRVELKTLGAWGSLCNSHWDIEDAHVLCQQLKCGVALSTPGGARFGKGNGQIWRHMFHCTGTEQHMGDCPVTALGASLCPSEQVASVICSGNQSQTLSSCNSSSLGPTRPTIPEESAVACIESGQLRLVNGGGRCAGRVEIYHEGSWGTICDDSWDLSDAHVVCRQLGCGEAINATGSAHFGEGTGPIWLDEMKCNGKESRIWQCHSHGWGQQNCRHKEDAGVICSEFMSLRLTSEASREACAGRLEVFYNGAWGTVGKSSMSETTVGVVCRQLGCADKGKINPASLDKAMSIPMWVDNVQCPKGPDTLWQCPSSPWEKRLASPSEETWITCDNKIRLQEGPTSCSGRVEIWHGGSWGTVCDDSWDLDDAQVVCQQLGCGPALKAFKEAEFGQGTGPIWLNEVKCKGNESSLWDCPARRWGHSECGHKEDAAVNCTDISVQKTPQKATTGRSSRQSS
# Mouse CD163 = Mouse CD163 (mouse, UniProt Q2VLH6)
# Sequence of Mouse CD163 (Q2VLH6 39-1045): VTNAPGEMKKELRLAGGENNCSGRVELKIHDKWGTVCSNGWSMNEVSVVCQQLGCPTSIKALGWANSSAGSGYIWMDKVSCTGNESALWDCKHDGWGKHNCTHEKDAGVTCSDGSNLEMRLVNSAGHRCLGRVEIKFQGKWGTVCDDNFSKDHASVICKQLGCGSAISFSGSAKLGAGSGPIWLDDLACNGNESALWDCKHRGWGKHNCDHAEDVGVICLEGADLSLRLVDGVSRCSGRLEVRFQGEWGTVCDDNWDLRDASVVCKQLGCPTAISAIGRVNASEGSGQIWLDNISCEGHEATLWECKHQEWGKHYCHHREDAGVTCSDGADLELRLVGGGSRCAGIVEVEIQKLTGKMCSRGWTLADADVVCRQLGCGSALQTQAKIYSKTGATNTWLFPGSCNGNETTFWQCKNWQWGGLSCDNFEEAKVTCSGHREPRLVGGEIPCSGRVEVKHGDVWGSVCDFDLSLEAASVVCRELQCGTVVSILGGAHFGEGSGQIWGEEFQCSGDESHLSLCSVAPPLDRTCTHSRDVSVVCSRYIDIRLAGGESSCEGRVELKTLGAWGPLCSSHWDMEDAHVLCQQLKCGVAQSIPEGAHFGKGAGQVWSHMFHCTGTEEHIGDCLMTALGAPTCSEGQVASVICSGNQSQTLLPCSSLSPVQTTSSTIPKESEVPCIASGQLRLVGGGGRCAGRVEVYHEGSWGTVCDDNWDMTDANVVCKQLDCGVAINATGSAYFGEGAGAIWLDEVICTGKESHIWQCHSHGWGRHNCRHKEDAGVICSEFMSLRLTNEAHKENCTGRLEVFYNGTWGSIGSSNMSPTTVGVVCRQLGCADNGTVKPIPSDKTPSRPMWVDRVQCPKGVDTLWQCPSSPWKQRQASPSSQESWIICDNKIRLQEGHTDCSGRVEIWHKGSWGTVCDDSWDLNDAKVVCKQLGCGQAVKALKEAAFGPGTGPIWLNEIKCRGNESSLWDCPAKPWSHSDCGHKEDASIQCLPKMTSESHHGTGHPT
# Mouse TNFR1 = molecular target: T1, Mouse TNFR1
binder,measurement,setting,value
B1,Kd,Human CD163,1.93 nM
same,koff,Human CD163,0.000151 s⁻¹
same,kon,Human CD163,78500 M⁻¹ s⁻¹
same,Kd,Mouse CD163,0.093 nM
same,koff,Mouse CD163,0.000232 s⁻¹
same,kon,Mouse CD163,2.5e+06 M⁻¹ s⁻¹
same,Kd,Mouse TNFR1,69.6 nM
same,koff,Mouse TNFR1,0.000379 s⁻¹
same,kon,Mouse TNFR1,5450 M⁻¹ s⁻¹
